The RNAGym collection of RNA variant scans (doi:10.7554/elife.90254)

B1: LINE1-mini (parent)
chain: GGCAGAGCUCAACACAGCGUGGCAAAGUGGCUGUGGCUAGACUGCC

Variants of: B1
Assay: self-cleavage, relative activity (ratio to wild type); higher = more cleavage; in vitro, sequencing; the parent is a self-cleaving ribozyme

Variant | self-cleavage
GGCAGAGCUCAACAAAGCGGGGCAAAGUGGCUGUGGCUAGACUGCC | 0.08
CGCAGAGCUCAACACAGCGUGGCAAAGUGGCUGUGACUAGACUGCC | 0.05
GGCAGAGCUCAACACAGCGUGGCAAAGUGGCGGUGGCUAGAAUGCC | 0.04
GGCAGAGCUCAACACAGUGUGGCAAAGUGGAUGUGGCUAGACUGCC | 0.08
GGCAGAGCUCAACACAUCGUGGCAAAGUGGCUGUGGCUAGACGGCC | 0.06
GGCAGAGCUCAACACAGGGUGGCAAAGUGCCUGUGGCUAGACUGCC | 1
GGCAGAGCUCAACACAGCGUGGCUAAGAGGCUGUGGCUAGACUGCC | 1.25
GGCAGAGCUCAACACAGCGUGGCAAAGUGGCUGUGACUAGAAUGCC | 0.16
GGCAGAGCUCUACACAGCGUGGCAAAGUGGCUCUGGCUAGACUGCC | 0.02
GGCAUAGCUCAACACAGCGUGGCAAAGUGGCUGUGUCUAGACUGCC | 0.57
GGCAGAGCUCAUCACAGCGUGGCAAAGCGGCUGUGGCUAGACUGCC | 0.6
GGCAGAGCGCAACACCGCGUGGCAAAGUGGCUGUGGCUAGACUGCC | 0.03
GGCAGAGCUAAACACAGGGUGGCAAAGUGGCUGUGGCUAGACUGCC | 0.04
GGCAGAGCUCAACAGAGCGUGGCAAAGUGGCUGUGGCUAGACUGCG | 0.03
GGCAGAGCCCAACACAGCGUGGCAAAGUGGCUGUGCCUAGACUGCC | 0.03
GGCAGAGGUCAACACAGCGUGGCAAAGUGCCUGUGGCUAGACUGCC | 0.1
GGUAGAGCUCAACACAGCGUGGCAACGUGGCUGUGGCUAGACUGCC | 0.35
CGCAGAGCUCAACACAGCGUGGCAAAUUGGCUGUGGCUAGACUGCC | 0.12
GGCAGAGCUCAACACAGCGUGGCAAAGUGGAUGUGGCUAGACUGCC | 0.15

Variant | self-cleavage
GGCAGAGCUCAACACAGCAUGGCAAAGUGCCUGUGGCUAGACUGCC | 1.5
GGCAUAGCUCAACACAGCGUGGCAAGGUGGCUGUGGCUAGACUGCC | 0.12
GGCAGAGCUAAAGACAGCGUGGCAAAGUGGCUGUGGCUAGACUGCC | 0.03
GUCUGAGCUCAACACAGCGUGGCAAAGUGGCUGUGGCUAGACUGCC | 0.08
GGCAGAGCUCAACACAGCGUGGGAAAGUGGCUGUGGCUAGACUCCC | 0.2
GGGAGAGCUCAACACAGCGUGGCAAAGUGGUUGUGGCUAGACUGCC | 0.07
GUGAGAGCUCAACACAGCGUGGCAAAGUGGCUGUGGCUAGACUGCC | 0.26
GGCAGAGCUAAACACAGCGUGGCAAAGUGGCUGUGGCUAGCCUGCC | 0.04
GGCAGAGCCCAACACAGCGUGGCAGAGUGGCUGUGGCUAGACUGCC | 0.04
GGCAGAGCUCCACACAGCGUGGCAAAGAGGCUGUGGCUAGACUGCC | 0.06
GGCAGAGCUCAACACAGCGUGGCACAGUGGCUGUGGCUAGACUGCA | 0.36
GGCAGAGCUCAACACAGCGUGGCACAGUGGCUGUUGCUAGACUGCC | 0.12
GGCAGAGCUCAACACUGCGUGGCAAAGUGGCUGUGUCUAGACUGCC | 0.06
GGCAGAGCUCAACAAAGCGUCGCAAAGUGGCUGUGGCUAGACUGCC | 0.11
GGCAGAGCUCAACACAGCGUGGCAAGGUGGCUGUGGCUAGACUGGC | 0.31
GGCAGAGCUCAACACAGCGUGGCAAAGUGCCUGUGGCUAAACUGCC | 0.13
GGCAGAUCUCAACACAGCGUGGCAAAGUGGCUGUGGCUAGAUUGCC | 0.12
GGCACAGCUCAACACAGCGUGGCAAAGUGGCUCUGGCUAGACUGCC | 0.03
GGCAGAGCUCAACACAGCGUGGCAAAGUCGCUGUGGCUAGGCUGCC | 0.21

Variant | self-cleavage
GGCAGACCUCAACACAGCGUGCCAAAGUGGCUGUGGCUAGACUGCC | 0.08
GGCAGAGCUCCACACAGCGUGGCGAAGUGGCUGUGGCUAGACUGCC | 0.06
GGCAGAGGUCAAGACAGCGUGGCAAAGUGGCUGUGGCUAGACUGCC | 0.04
GGCAGAGCUUAACACAGAGUGGCAAAGUGGCUGUGGCUAGACUGCC | 0.28
GGCAGAGCUCAACACAGCGAGGCAAAGUAGCUGUGGCUAGACUGCC | 0.51
GGGAGAGCUCAACACGGCGUGGCAAAGUGGCUGUGGCUAGACUGCC | 0.23
GGCAGAGCUCAACACAGCGUGGCAAAGAGGCUGUGGCUACACUGCC | 0.09
GGCAGAGCUCAACACAGCUUAGCAAAGUGGCUGUGGCUAGACUGCC | 0.64
UGCAGAGCUCAACACAGCGUGGCAAAGUCGCUGUGGCUAGACUGCC | 0.2
GGCCGAGCUCAACACAGCGUGGCAAAGUGGCUGUGGCGAGACUGCC | 0.04
GGGAGAGCUCAACACAGCGUGGCAAAGUGACUGUGGCUAGACUGCC | 0.82
CGCAGAGCUCAACACAGCGUGGCAAAGUGGCUGAGGCUAGACUGCC | 0.01
GGCAGAGCUGAACACAGCGUGGCAAAGUGGCUGUGGCUACACUGCC | 0.02
GGCAGAGCUCAACACAGUGUGGCAAAGUGGCUGUGGCUAGUCUGCC | 0.92
GGCAGAGUUCAACACAGCGUGGCAAAGUGGCUGUGGCUAGGCUGCC | 0.2
GGCAGAGCUCAACACAGCGUGGCAAAGAGGCUGGGGCUAGACUGCC | 0.11
GGCAGAGCUCAAUACAGCGUGGCAAAAUGGCUGUGGCUAGACUGCC | 0.17
GGCCGAGCUCAACACAGCGGGGCAAAGUGGCUGUGGCUAGACUGCC | 0.1
